Results published in the supplement of paper PMC10065799, “High-throughput profiling of sequence recognition by tyrosine kinases and SH2 domains using bacterial peptide display” (eLife, 2023).

What was measured:
AncSZ = assay: phosphorylation enrichment, bacterial display (enrichment ratio); higher = better substrate or ligand; peptides without Tyr show the background
EPHB1 = EPHB1 (UniProt P54762); assay: as above
EPHB2 = EPHB2 (UniProt P29323); assay: as above
FGFR1 = FGFR1 (UniProt P11362); assay: as above
FGFR3 = FGFR3 (UniProt P22607); assay: as above
Fer (mouse) = assay: as above
Fes = Fes (UniProt P07332); assay: as above
Fyn = Fyn (UniProt P06241); assay: as above
Hck = Hck (UniProt P08631); assay: as above
Jak2 = Jak2 (UniProt O60674); assay: as above
MERTK = MERTK (UniProt Q12866); assay: as above
c-Abl (mouse) = assay: as above
c-Src = assay: as above
Grb2 SH2 = Grb2 SH2 (UniProt P62993); assay: SH2 binding enrichment of the phosphorylated peptide, bacterial display (enrichment ratio); higher = better substrate or ligand; peptides without Tyr show the background
SHP2-C SH2 = assay: as above
c-Src SH2 = assay: as above
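Wherever SH2 binding enrichment of the phosphorylated peptide, bacterial display is given: peptide library displayed on the E. coli surface as eCPX fusions, selected cells deep-sequenced, score is each peptide's frequency after selection divided by its frequency in the input.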
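Wherever phosphorylation enrichment, bacterial display is given: 11-residue human phosphosite peptides and single-mutation variants displayed on the E. coli surface, counted by deep sequencing, each peptide's frequency after selection divided by its frequency in the unselected input library; frequency after pTyr selection over input frequency; kinase dosed for 20-30% of maximal phosphorylation in three min.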

Chain of Hck (P08631 whole entry, looked up): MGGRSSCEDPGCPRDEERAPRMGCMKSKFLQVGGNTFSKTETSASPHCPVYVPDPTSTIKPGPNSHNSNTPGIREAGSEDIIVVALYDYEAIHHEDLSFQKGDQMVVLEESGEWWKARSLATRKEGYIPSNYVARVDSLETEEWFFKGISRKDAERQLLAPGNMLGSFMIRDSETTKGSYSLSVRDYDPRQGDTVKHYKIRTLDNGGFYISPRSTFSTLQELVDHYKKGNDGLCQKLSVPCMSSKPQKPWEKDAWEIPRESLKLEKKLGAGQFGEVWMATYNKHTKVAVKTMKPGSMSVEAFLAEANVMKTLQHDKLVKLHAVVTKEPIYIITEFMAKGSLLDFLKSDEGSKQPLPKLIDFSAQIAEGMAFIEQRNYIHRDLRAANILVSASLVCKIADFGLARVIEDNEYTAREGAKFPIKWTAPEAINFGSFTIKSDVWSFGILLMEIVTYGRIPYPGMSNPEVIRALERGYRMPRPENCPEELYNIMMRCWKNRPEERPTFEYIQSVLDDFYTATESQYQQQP
Chain of FGFR1 (P11362 whole entry, looked up): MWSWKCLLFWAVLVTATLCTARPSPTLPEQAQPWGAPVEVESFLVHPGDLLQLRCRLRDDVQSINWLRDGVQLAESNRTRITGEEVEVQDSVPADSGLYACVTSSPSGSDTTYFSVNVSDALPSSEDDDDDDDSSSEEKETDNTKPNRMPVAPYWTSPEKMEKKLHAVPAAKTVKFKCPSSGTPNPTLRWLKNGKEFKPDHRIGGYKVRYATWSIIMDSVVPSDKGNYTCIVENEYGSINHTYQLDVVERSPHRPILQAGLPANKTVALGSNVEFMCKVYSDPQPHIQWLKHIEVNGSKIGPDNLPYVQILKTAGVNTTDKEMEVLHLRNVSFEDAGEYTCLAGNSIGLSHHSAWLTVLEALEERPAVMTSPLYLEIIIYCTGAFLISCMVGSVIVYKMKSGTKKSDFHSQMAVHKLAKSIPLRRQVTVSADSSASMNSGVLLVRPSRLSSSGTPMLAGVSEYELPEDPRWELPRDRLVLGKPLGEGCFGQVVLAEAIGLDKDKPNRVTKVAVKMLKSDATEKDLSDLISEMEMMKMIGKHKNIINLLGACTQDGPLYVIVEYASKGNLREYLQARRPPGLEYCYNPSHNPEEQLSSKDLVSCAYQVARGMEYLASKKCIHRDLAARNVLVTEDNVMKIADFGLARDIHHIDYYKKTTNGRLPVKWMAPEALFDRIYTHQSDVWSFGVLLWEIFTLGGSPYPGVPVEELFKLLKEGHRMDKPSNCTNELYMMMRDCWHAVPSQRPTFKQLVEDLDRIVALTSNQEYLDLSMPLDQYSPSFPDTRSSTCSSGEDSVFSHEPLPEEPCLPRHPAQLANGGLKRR
Chain of EPHB2 (P29323 whole entry, looked up): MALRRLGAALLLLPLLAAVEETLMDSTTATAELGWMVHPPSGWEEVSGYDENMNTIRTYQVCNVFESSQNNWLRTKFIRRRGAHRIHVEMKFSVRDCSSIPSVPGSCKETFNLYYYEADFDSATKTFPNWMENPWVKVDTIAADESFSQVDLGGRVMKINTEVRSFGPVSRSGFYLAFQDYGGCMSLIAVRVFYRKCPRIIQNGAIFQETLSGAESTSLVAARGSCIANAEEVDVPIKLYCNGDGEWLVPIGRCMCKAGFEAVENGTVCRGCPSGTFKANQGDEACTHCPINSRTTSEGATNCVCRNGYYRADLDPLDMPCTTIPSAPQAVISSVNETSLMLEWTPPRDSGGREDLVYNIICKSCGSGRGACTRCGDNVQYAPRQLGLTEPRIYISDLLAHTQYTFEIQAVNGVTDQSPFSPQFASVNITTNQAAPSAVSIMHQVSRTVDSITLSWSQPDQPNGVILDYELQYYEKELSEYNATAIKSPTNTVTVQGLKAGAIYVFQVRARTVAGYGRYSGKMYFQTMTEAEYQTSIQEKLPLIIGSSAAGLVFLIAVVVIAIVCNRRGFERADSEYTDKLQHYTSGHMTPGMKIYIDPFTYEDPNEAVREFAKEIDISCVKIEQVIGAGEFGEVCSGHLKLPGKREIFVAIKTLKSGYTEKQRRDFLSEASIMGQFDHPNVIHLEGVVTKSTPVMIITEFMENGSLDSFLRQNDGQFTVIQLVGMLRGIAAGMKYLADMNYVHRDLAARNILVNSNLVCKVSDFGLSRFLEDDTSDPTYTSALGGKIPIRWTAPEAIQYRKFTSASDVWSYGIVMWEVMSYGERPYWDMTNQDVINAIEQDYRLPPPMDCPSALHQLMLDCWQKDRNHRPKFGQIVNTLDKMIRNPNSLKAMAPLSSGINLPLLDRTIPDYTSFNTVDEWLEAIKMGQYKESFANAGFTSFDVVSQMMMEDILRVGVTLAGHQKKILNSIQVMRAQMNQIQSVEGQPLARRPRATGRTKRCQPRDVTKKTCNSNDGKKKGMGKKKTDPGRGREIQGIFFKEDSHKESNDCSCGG
Chain of Fes (P07332 whole entry, looked up): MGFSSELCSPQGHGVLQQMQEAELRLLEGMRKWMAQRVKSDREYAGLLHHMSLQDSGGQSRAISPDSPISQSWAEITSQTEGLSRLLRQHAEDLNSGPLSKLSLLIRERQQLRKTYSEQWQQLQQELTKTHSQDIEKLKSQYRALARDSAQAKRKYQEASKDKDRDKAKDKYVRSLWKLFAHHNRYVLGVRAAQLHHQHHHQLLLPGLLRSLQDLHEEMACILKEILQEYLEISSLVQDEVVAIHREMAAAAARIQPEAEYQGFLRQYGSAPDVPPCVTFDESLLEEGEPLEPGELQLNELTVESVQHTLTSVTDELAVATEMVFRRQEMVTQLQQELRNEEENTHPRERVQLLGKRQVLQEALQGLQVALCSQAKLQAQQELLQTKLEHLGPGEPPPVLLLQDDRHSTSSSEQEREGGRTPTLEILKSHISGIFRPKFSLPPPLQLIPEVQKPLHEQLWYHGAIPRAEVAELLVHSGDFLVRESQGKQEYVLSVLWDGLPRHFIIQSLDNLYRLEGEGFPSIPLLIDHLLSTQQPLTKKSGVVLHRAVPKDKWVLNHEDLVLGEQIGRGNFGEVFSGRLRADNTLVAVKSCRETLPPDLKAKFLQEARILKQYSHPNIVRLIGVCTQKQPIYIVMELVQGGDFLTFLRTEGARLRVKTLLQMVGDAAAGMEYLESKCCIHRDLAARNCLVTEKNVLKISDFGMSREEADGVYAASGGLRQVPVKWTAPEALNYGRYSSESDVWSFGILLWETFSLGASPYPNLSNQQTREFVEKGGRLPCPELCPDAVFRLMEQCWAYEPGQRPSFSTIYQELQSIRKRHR
Chain of MERTK (Q12866 whole entry, looked up): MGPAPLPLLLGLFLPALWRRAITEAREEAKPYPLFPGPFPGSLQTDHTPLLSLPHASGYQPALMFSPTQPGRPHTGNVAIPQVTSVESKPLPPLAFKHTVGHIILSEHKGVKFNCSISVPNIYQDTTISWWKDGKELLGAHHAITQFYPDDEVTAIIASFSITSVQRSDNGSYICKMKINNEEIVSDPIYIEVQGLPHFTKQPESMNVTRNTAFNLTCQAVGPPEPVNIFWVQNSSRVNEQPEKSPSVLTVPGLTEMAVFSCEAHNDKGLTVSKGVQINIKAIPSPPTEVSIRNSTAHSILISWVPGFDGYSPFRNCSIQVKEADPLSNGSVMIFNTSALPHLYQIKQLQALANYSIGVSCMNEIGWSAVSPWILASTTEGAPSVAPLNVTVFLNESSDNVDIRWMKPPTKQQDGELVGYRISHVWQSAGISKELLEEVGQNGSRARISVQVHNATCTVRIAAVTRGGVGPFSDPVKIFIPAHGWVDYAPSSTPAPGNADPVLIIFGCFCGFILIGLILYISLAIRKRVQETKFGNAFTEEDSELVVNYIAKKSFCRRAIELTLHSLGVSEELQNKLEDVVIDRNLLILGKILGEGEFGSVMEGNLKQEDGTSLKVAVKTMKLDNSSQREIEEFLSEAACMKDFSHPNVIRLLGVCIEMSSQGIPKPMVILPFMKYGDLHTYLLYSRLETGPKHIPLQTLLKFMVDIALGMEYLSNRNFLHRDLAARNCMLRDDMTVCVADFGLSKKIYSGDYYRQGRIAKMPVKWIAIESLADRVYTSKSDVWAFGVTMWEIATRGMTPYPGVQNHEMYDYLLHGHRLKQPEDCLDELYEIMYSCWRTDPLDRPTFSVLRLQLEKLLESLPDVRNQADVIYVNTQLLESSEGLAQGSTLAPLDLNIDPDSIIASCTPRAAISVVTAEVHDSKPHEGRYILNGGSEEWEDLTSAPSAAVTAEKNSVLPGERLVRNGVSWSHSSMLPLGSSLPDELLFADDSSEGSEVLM
Chain of Fyn (P06241 whole entry, looked up): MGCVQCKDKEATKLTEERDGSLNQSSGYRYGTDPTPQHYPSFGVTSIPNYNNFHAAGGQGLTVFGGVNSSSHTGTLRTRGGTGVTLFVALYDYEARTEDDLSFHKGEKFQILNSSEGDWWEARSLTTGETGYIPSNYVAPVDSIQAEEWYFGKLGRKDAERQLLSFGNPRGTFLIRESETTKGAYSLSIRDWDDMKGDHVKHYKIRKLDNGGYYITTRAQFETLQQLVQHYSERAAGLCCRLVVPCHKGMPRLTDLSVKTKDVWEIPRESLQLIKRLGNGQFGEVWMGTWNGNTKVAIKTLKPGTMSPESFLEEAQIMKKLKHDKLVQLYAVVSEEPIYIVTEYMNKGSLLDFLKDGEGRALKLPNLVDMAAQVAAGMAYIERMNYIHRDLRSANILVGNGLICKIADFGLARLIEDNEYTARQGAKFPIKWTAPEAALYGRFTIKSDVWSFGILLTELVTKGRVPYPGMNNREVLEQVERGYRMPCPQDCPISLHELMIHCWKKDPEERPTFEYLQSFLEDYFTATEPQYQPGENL

SH2 binding enrichment (Grb2 SH2)	SH2 binding enrichment (SHP2-C SH2)	SH2 binding enrichment (c-Src SH2)	Sequence	phosphorylation enrichment (AncSZ)	phosphorylation enrichment (EPHB1)	phosphorylation enrichment (EPHB2)	phosphorylation enrichment (FGFR1)	phosphorylation enrichment (FGFR3)	phosphorylation enrichment (Fer (mouse))	phosphorylation enrichment (Fes)	phosphorylation enrichment (Fyn)	phosphorylation enrichment (Hck)	phosphorylation enrichment (Jak2)	phosphorylation enrichment (MERTK)	phosphorylation enrichment (c-Abl (mouse))	phosphorylation enrichment (c-Src)
0.822	0.784	0.496	FADIAYSYRHG [PAH_Y166_N167S]	0.726	0.423	0.418	0.562	0.508	0.453	0.658	0.512	0.568	0.727	0.46	0.63	0.714
0.891	0.522	0.549	QWRTKYEMDAI [MYH7_Y1375_T1377M]	1.12	0.479	0.4	0.58	0.843	0.365	0.964	0.773	0.561	0.519	0.384	0.5	0.344
0.817	0.699	0.445	SADIAYNYRHG [PAH_Y166_F161S]	0.488	0.333	0.378	0.362	0.391	0.469	0.498	0.345	0.344	0.435	0.329	0.508	0.388
1.1	0.555	0.633	LSQDVYEEDSY [RET_Y900_R897Q]	1.53	0.966	1.19	0.695	1.04	0.835	1.71	0.782	0.497	1.76	0.584	1.13	0.856
0.804	0.611	0.434	NNIDFYKNTTN [FGFR2_Y657_K659N_YF]	0.746	0.484	0.389	0.442	0.609	0.448	0.792	0.472	0.553	0.574	0.352	0.57	0.369
1.87	2.53	2.6	CTTIHYNYMCI [TP53_Y234_N239I]	0.946	5.99	2.4	2.52	1.55	1.05	1	0.487	0.494	0.859	1.41	0.509	0.462
4.48	1.46	1.4	TSSAIYMNLAS [GATAD2B_Y317]	0.949	8.76	3.51	3	1.94	3.71	1.01	6.11	6.95	0.997	8.39	3.29	6.07
0.952	0.822	0.597	DLHGIYQKLVI	0.886	4.32	3.01	1.65	1.31	11.4	1.04	8.38	7.64	0.82	5.38	3.83	5.84
0.874	0.618	0.477	SAEEDYKADAK [KCNT1_Y876_M877K]	1.18	0.635	0.502	0.464	0.684	0.465	1.28	0.534	0.536	1.07	0.497	0.831	0.513
1.73	2.14	2.29	LGKGSYAKVRS [TSSK2_Y23_K27R]	1.02	0.395	0.408	0.558	0.699	0.626	0.733	0.725	0.586	1.33	0.744	1.12	0.792
1.01	12.1	0.669	TNYSLYLRSLE [MTM1_Y71_R69S]	0.952	0.722	0.671	0.456	0.659	0.555	1.15	0.423	0.601	1.29	0.602	0.574	0.42
0.507	0.473	1.02	LSDGPYSSPFE [EPOR_Y485_N487S_YF]	1.37	0.631	0.53	0.781	0.715	0.465	0.84	0.786	0.684	0.765	0.527	0.468	0.698
0.762	0.827	0.569	TSSSSYFDEPV [ARFGAP3_Y356]	1.1	0.549	0.576	0.486	0.749	0.506	1.01	0.478	0.5	0.98	0.421	0.841	0.47
0.777	1.5	1.65	LGKGSYAKVKS [TSSK2_Y23]	0.884	0.482	0.875	0.955	0.844	0.693	1.83	1.37	0.985	1.54	1.11	1.26	1.53
0.8	0.603	0.994	RTTIHYNYMCN [TP53_Y234_C229R]	1.81	1.48	1.13	0.892	1.6	1.25	2.24	1.16	1.11	1.57	0.901	1.2	0.649
0.713	0.641	0.627	YSMGCYEIYLG [HMGCL_Y198_S201Y]	4.43	4.78	8.68	2.06	2.19	5.57	2.02	6.34	4.95	1.41	4.69	1.37	5.79

SH2 binding enrichment (Grb2 SH2)	SH2 binding enrichment (SHP2-C SH2)	SH2 binding enrichment (c-Src SH2)	Sequence	phosphorylation enrichment (AncSZ)	phosphorylation enrichment (EPHB1)	phosphorylation enrichment (EPHB2)	phosphorylation enrichment (FGFR1)	phosphorylation enrichment (FGFR3)	phosphorylation enrichment (Fer (mouse))	phosphorylation enrichment (Fes)	phosphorylation enrichment (Fyn)	phosphorylation enrichment (Hck)	phosphorylation enrichment (Jak2)	phosphorylation enrichment (MERTK)	phosphorylation enrichment (c-Abl (mouse))	phosphorylation enrichment (c-Src)
0.846	0.841	1.23	KLPFLYDDPFS [GPX2_Y127_P126L_YF]	1.07	3.99	4.62	0.589	0.62	1.6	0.995	0.672	1.5	1.03	2.66	0.736	0.641
0.94	1	0.58	WVYNHYRCIIW [BRCA2_Y2624_W2626C]	1.28	0.806	0.645	0.562	0.891	0.569	1.63	0.515	0.538	1.4	0.659	1.18	0.481
1.4	1.06	0.612	IKKLIYVYLVI [JAGN1_Y42_H44Y]	0.873	0.466	0.411	0.351	0.452	0.323	0.97	0.412	0.43	0.817	0.427	0.955	0.475
0.735	0.952	0.562	GGSTFYIDTNA [ACTL6A_Y69_P66S_YF]	0.923	0.523	0.48	0.528	0.651	0.475	0.987	0.4	0.461	1.01	0.477	0.734	0.39
0.589	0.47	0.425	REQREYLDQLN [CCDC88B_Y1277]	0.917	0.666	0.663	0.693	0.66	0.532	0.984	0.624	0.604	0.578	0.433	2.21	0.521
1.04	0.971	0.654	FTFDPYSEEEP [IL2RB_Y387_D391E_YF]	1.22	0.874	0.576	0.602	0.811	0.549	1.49	0.59	0.584	0.917	0.469	0.733	0.907
0.895	0.706	0.678	SHTPSYCDESL [RITA1_Y109]	0.806	0.462	0.459	0.502	0.516	0.505	0.831	0.405	0.405	0.62	0.419	0.566	0.403
1.17	1.28	0.966	RFLERYIYNPE [HLA-DPB1_Y57_R61P]	1.1	0.755	0.675	0.55	0.671	0.636	1.15	1.75	2.11	0.935	1.5	0.68	3.08
0.898	0.643	0.491	SNMPTYSGHFS [GRIN2A_Y1224_T1229S]	0.594	0.585	0.784	0.433	0.45	1.04	0.581	1.7	1.48	0.662	1.15	0.684	2.61
1.03	3.38	1.02	LEKISYVYMKR [SSX7_Y48]	1.72	1.23	1.37	0.784	1.32	0.875	1.75	1.21	1.18	1.37	0.81	1.3	0.547
1.03	0.873	0.691	KILPEYLSNWT [AIFM1_Y347]	0.995	0.428	0.513	0.543	0.673	0.424	0.915	0.463	0.481	0.983	0.509	0.677	0.503
0.848	0.678	0.493	ESAAIYNPVIF [RHO_Y301_K296E_YF]	1.03	0.452	0.579	0.673	0.675	17.2	1.25	8.03	9.56	0.707	4.16	1.28	6.99
1.49	1.13	1.24	TLSGIYQFIIA [FOXL2_Y81_YF]	1.81	14.2	9.15	10.4	7.18	15	3.16	6.83	8.44	1.2	10.1	2.71	5.96
0.644	0.681	0.49	VSTAVYKRFAS [BEST1_Y148_P152A]	0.715	0.693	0.647	0.507	0.48	0.398	0.77	0.449	0.511	0.725	0.489	0.716	0.555
0.777	0.39	0.374	KNKNRSKNILP [PTPN11_Y279_Y279S]	0.732	0.686	0.568	0.531	0.627	0.486	0.749	0.621	0.561	0.632	0.561	0.771	0.564

Sequence	SH2 binding enrichment (Grb2 SH2)	SH2 binding enrichment (SHP2-C SH2)	SH2 binding enrichment (c-Src SH2)	phosphorylation enrichment (AncSZ)	phosphorylation enrichment (EPHB1)	phosphorylation enrichment (EPHB2)	phosphorylation enrichment (FGFR1)	phosphorylation enrichment (FGFR3)	phosphorylation enrichment (Fer (mouse))	phosphorylation enrichment (Fes)	phosphorylation enrichment (Fyn)	phosphorylation enrichment (Hck)	phosphorylation enrichment (Jak2)	phosphorylation enrichment (MERTK)	phosphorylation enrichment (c-Abl (mouse))	phosphorylation enrichment (c-Src)
KSEKVYTRHGV [FLOT1_Y56]	0.866	0.824	0.579	0.502	0.354	0.339	0.439	0.341	0.417	0.527	0.254	0.346	0.444	0.427	0.401	0.34
YKTPIYPYLLP [PLD2_Y578_T577I]	0.953	1.04	2.4	1.14	0.816	0.744	2.43	1.53	0.695	0.857	0.787	0.628	1.51	2.08	0.899	0.707
